Test results reported in patent US20190307847A1.

Target: mouse FGFR4/β-klotho complex co-expressed in rat L6 myoblast cells (mouse) (UniProt Q03142)
Assay: cell-based or functional assay

Chain of mouse FGFR4/β-klotho complex co-expressed in rat L6 myoblast cells (mouse) (Q03142 17-799, chain 1 of 2): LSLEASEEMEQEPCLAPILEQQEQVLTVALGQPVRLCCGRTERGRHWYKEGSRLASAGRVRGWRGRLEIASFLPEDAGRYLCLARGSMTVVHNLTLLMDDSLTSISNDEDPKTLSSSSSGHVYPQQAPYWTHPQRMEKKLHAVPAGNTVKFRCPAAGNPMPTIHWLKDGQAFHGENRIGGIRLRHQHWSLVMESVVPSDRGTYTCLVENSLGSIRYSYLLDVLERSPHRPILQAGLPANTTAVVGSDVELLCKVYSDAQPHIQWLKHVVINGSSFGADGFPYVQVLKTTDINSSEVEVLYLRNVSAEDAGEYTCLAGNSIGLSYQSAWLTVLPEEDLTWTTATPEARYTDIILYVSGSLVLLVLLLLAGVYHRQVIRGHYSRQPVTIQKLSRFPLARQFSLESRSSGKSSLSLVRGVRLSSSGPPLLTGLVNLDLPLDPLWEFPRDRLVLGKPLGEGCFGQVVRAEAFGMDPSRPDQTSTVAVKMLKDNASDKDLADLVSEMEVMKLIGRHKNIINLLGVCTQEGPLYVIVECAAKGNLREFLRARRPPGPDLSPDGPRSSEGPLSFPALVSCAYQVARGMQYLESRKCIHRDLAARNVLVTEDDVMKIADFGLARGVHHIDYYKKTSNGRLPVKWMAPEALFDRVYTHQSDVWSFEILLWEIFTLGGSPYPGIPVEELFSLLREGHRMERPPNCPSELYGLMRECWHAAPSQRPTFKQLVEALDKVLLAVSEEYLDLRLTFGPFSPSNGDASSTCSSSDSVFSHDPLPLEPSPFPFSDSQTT
Chain of mouse FGFR4/β-klotho complex co-expressed in rat L6 myoblast cells (mouse) (Q99N32 whole entry, chain 2 of 2, further chain): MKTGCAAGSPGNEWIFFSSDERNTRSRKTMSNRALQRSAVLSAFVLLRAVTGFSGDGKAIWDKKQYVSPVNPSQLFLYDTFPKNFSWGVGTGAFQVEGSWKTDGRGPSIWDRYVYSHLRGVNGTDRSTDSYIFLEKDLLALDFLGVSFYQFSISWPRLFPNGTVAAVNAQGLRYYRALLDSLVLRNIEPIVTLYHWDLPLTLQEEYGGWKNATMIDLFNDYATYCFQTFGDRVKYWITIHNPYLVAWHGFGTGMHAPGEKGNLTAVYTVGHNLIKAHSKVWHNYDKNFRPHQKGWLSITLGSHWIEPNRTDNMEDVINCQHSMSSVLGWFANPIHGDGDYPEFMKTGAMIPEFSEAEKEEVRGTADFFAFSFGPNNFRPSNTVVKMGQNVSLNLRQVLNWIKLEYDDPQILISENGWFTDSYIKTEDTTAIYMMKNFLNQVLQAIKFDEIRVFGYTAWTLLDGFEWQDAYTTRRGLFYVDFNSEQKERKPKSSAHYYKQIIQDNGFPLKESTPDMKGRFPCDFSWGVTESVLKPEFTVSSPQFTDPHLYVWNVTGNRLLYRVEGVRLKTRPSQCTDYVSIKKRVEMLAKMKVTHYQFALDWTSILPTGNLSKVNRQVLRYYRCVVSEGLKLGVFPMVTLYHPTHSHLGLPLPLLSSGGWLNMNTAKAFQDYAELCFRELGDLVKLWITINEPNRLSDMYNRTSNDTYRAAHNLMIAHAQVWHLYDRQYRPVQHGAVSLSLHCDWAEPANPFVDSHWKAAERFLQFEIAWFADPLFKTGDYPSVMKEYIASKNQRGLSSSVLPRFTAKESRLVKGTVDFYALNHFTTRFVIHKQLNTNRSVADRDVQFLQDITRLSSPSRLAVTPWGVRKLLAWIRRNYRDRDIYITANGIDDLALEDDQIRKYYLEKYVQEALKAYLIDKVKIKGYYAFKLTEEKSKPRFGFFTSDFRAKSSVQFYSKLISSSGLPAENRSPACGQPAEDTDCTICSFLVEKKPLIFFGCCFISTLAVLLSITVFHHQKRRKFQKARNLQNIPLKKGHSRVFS

EC50 (pM), ELK luciferase assay in L6 cells: 52.5 pM | Emax (fold potentiation), ELK luciferase assay in L6 cells (fold potentiation): 1.82
Substance: FGF19 (human fibroblast growth factor 19, wild type) (from UniProt O95750 25-216) (ligand)
